According to paper PMC2132865:

Columns and labels:
[1] = molecular target: Fam (endogenous, MDCKII cells) (dog (endogenous in MDCKII)); experiment: co-IP
[2] = molecular target: GST-AF-6 (1130–1612 aa); experiment: pull-down

stoichiometry N [1] [AF-6 per Fam] | Kd [2] [nM] | Substance
0.1 | – | AF-6 (endogenous, MDCKII cells) (natural protein)
– | 810 | MBP-Fam (1476–1918 aa) (domain or fragment)
